How the values were obtained:
GST-IFT27 [1] = biological target: T1, GST-IFT27 (Chlamydomonas reinhardtii …, UniProt A8HN58); assay: pull-down (GST and amylose resin)
T1 chain: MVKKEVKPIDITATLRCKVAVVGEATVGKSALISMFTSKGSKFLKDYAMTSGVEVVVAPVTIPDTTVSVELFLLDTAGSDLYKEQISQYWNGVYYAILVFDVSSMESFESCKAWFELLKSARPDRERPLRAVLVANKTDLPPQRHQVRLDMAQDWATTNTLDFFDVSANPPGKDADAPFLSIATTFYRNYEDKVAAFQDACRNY

GST-IFT27 [2] = biological target: T2, GST-IFT27 (Chlamydomonas reinhardtii, UniProt A8HN58 1-204); assay: pull-down; GST-IFT27 (~2 ug) on Glutathione Sepharose 4B beads, incubated 1 hour with MBP-IFT25 (~2 ug), MBP-IFT25 plus MBP, or MBP (2 ug); 1xHMDEK, 4 C; supernatant and pellet on SDS-PAGE, Coomassie and immunoblot; conditions: both partners purified
T2 construct: IFT27, Rab-like small GTPase component of IFT complex B, Chlamydomonas reinhardtii; also called GST-tagged IFT27; source: E. coli BL21 (DE3) pLysE, pGEX-2T-IFT27, purified (Glutathione Sepharose 4B, eluted with reduced glutathione)
T2 sequence (looked up): T1 chain

B1: MBP-IFT25 (natural protein, Chlamydomonas reinhardtii, UniProt B8LIX8 1-189, looked up)
chain: MKDYAREENGGLVVMASCSDERFPPENMLDGKDNTFWVTTGMFPQEFVLRLESCIRVSKITTLSLNVRKLAVEKCDQDKPDQFEKVFEVELANRGDRLQTEVHQVNIRAKYLKFILLQGHGEFATVNRVSVVGGDDDGGGYDEPGGGYGSMQRQPSMGYGGGGGSAATGFAADPGNAAAGGGGGFEDEF
notes: IFT25 (Flagellar Associated Protein FAP232) of Chlamydomonas reinhardtii; cDNA of 570 nucleotides, predicted about 20 kD; the 3' end of the FAP232 gene model was predicted incorrectly, the corrected cDNA is GenBank EF593953; Details of vector construction are 'available upon request'; also called MBP-tagged IFT25; FAP232; source: E. coli BL21 (DE3) pLysE, pMAL-c2-IFT25, purified (amylose resin, …)
B1: binds (GST-IFT27 [1]); binds (GST-IFT27 [2]).

— article PMC2671599, “Intraflagellar Transport (IFT) Protein IFT25 Is a Phosphoprotein Component of IFT Complex B and Physically Interacts with IFT27 in Chlamydomonas” (PLoS ONE, 2009)
